Source: article PMC10929192, “Hypoxia-activated selectivity-improved anti-PKM2 antibody combined with prodrug TH-302 for potentiated targeting therapy in hepatocellular carcinoma” (International Journal of Biological Sciences, 2024)

Experiments:
[1] = molecular target: T1, human PKM2 Ag (M2 splice isoform of pyruvate kinase), purified (Homo sapiens, UniProt P14618); assay: SPR; human PKM2 Ag (20 µg/mL, sodium acetate buffer, pH 5) on a CM5 chip; serial dilutions of the Abs injected at 20 μL/min, 120 s binding, 300 s dissociation; 1:1 kinetic binding model; Biacore T200; conditions: both partners purified
T1 construct: M2 splice isoform of pyruvate kinase (PKM2), human; also called purified PKM2 antigen
T1 sequence (P14618 whole entry, canonical isoform): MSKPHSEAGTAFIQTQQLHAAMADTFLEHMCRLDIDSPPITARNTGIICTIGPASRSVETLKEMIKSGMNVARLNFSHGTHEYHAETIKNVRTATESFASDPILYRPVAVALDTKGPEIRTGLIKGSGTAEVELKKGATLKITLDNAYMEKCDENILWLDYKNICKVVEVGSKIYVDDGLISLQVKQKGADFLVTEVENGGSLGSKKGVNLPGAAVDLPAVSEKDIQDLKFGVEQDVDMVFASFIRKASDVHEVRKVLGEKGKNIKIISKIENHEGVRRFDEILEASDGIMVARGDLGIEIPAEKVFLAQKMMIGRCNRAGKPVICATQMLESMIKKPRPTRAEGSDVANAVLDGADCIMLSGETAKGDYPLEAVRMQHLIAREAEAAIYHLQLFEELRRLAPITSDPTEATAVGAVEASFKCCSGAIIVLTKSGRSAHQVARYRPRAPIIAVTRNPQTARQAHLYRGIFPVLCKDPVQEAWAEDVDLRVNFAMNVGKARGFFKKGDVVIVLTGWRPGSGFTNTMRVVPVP

PKM2 Ag in HCC tissues = molecular target: T2, PKM2 Ag in HCC tissues (Homo sapiens (HCC patient tissue), UniProt P14618); assay: immunostaining of cells or tissue; IHC on sections of HCC patient specimens; primary Abs 0.1 mg/mL overnight at 4 °C; goat anti-human IgG-HRP; conditions: one partner purified
T2 construct: M2 splice isoform of pyruvate kinase (PKM2), endogenous in human HCC tissue; source: endogenous, surgical specimens from HCC patients (tissue sections)
T2 sequence (P14618 whole entry, canonical isoform): as above

[2] = molecular target: T3, PKM2 Ag expressed in HCC cells (HepG2, Huh7) (Homo sapiens (HepG2, Huh7), UniProt P14618); assay: flow cytometry on cells; normoxia-cultured HepG2 and Huh7 cells, EDTA-detached, Abs in serum-free medium 1 h at 37 °C; goat anti-human IgG(H+L)-RDM; conditions: one partner purified
T3 construct: M2 splice isoform of pyruvate kinase (PKM2), endogenous in human HCC cell lines; living cells were incubated with the antibodies at 37 °C; the antibody is said to internalize; also called expressed PKM2 Ag; source: endogenous, HepG2 and Huh7 cells
T3 sequence (P14618 whole entry, canonical isoform): as above

B1: human full-length H103 Ab (anti-PKM2 antibody, IgG1) (antibody, V domains shown)
VH: QVQLQESGPGLVRPSGTLSLICAVSGDSISSSIWWSWVRQSPGKGLEWIGYIYHNGNTYYNPSLESRVTISVDTSENQFSLKLSSVTAADTAVYYCARGYDSSGYYWTDDRYYFDYWGQGTLVTVSS
VL: NFMLTQPHSVSESPGKTVTISCTGSSGSIASNYVQWYQQRPGSAPTTVIYEDNQRPPGVPDRFSGSIDSSSNSASLTISALETEDEADYYCQSYDSRNIDVVFGGGTKVTVL
notes: the first five amino acids were replaced by those of germline IGHV4-4*02; constant region of human IgG1 (from the expression vector pcMV3-H103-H); light chain constant region from the vector pcMV3-H103-L; IgG1; codon optimised; also called parental H103 Ab; parent H103 Ab
B1: binds [1]; binds (PKM2 Ag in HCC tissues).

B2: Na2S2O4-cleaved HAP103 Ab (act-HAP103) (antibody, V domains shown)
VH: B1 VH
VL: B1 VL
notes: as the VH of m1; constant region of human IgG1, as in m1; as the VL of m1; as the light chain constant region of m1; IgG1; also called act-HAP103 Ab; act-HAP Ab; source: HAP103 Ab incubated with Na2S2O4 in carbonate buffer pH 8.0 at RT for 2 h, ultrafiltration
B2: binds [1]; binds [2]; binds (PKM2 Ag in HCC tissues).
